Test results taken from patent US20220411523A1.

Assays:
[1] = target: Human 4-1BB + Mouse 4-1BB domain1,4B,NF(aa24-46,aa139-186) (human; mouse); test: FACS, transiently transfected Expi293 cells (cell F)
[2] = target: Human 4-1BB + Mouse 4-1BB domain1,2A,2B(aa24-86) (human; mouse); test: FACS, transiently transfected Expi293 cells (cell A)
Chain of Human 4-1BB + Mouse 4-1BB domain1,2A,2B(aa24-86) (human; mouse) (chain, as listed by the source): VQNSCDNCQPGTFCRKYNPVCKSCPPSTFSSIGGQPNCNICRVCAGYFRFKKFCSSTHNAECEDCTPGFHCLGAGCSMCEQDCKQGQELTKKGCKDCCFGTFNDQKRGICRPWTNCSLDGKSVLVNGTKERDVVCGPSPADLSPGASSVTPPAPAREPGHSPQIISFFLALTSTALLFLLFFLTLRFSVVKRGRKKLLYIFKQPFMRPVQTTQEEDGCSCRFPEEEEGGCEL

Chain of Human 4-1BB + Mouse 4-1BB domain1,4B,NF(aa24-46,aa139-186) (human; mouse) (chain, as listed by the source): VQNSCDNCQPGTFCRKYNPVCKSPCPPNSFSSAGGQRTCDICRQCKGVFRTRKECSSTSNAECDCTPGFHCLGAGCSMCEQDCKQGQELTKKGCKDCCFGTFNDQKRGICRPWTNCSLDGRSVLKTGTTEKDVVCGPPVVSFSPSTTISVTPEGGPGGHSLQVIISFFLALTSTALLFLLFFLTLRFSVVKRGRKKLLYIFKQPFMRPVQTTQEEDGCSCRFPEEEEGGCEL

B1: Hanke10F4 (antibody, human IgG4 S228P, kappa, V domains shown)
VH: QVQLQESGPGLVKPSETLSITCTVSGSSLTSYGVHWVRQPPGKGLEGLGVIWPGGSTNYNSALMSRLTISKDNSKSQVSLKMSSLTAADTAMYYCARVTGTWYFDVWGQGTTVTVSS
VL: DIQMTQSPSSLSASLGDRVTISCSASQGISNYLNWYQQKPDGTVKLLIYYTSTLHSGVPSRFSGSGSGTDFTLTISSLQPEDVATYYCQQYSKLPWTFGGGTKLEIKR
Mean fluorescence intensity [1]: 1870
Mean fluorescence intensity [2]: 948
